From article PMC9636275 (Nature Communications, 2022)
Entries after “also recorded” stand apart in the source; their conditions may differ. Where two headings read alike, the source gives them in different places.

Columns and labels:
YiaC [1] = test: YiaC lactylation/acetylation of synthetic peptide, LC-MS; type: biochemical, E. coli; details: 50 μM TICHDKAFVR, 5 μM YiaC, 2 h
YiaC [2] = test: Kinetic parameters of YiaC, MALDI-TOF MS; type: biochemical, E. coli; details: for kcat: peptide from PncB, MALDI-TOF MS
Procedure: (§1) This method was described previously. […] Meanwhile, YiaC was incubated with unmodified peptide ([…], from PncB) in the YiaC reaction buffer. The concentrations of the peptides were 5, 10, 16, 32, 60, and 285 uM, and reaction time were 1, 5, 15, and 30 min. […] 0.1 μl samples mixed with 2,5-dihydroxybenzoic acid (DHB) were analyzed by MS. An acceleration voltage of 20 kV was used. MS data were analyzed using FlexAnalysis software for spectral processing and peak detection. The enzyme kinetics were analyzed by Prism GraphPad 8.0 software.

whole-cell lysates = test: Immunoblotting of lysine acylation in whole-cell lysates of overexpressing or deficient strains; type: cell-based, E. coli; details: immunoblot; for Kla level: overexpression in E. coli BL21 (λDE3) vs empty pET28a, LB 37 °C
Procedure: All the anti-acyllysine antibodies were purchased from PTM Biolabs Inc. All the synthetic peptides were generated by SciLight Biotechnology, LLC. Antibodies (all diluted 1:1000) and other reagents are listed in Supplementary Data 7.
This method was performed as described previously. In detail, plasmids were constructed to express proteins in E. coli. We used pEASY®-Basic Seamless Cloning and Assembly Kit (TRANS) to construct the plasmids of pET28a-cisY, pET28a-pncB, pET28a-gpmA, pET28a-mdh, pET28a-pykF, and pBR322-pykF-His tag. For mutation, we used the Fast Mutagenesis System (TRANS) to construct the vectors containing point mutated genes. All primers used for PCR are listed in Supplementary Data 7. The constructed vectors of pET28a were transformed into E. coli BL21 (λDE3) for overexpressing strains. The constructed vectors of pBR322 were transformed into E. coli MG1655 and cultured in LB medium containing ampicillin (Amp, 50 μg ml^–1), at 37 °C in shaken flasks at 220 rpm. overnight.
Next, cells were induced with 0.05 mM IPTG at 16 °C overnight followed by harvesting of whole-cell lysates for immunoblotting or protein purification. The proteins were harvested from cultured cells by lysis buffer (20 mM Tris-HCl, pH 8.0, 10 mM MgCl2, 1 mg ml^–1 lysozyme, 50 U ml^–1 nuclease). Then the proteins were mixed with HisPur Ni-NTA Resin and washed by wash buffer (20 mM Na3PO4, 300 mM NaCl, 25 mM imidazole, pH 7.4), the overexpressed proteins were eluted with elution buffer (20 mM Na3PO4, 300 mM NaCl, 250 mM imidazole, PH 7.4). The elution was collected and concentrated using an Amicon Ultra-0.5 Centrifugal Filter Device in storage buffer (100 mM HEPES, 10 mM MgCl2, 7.7 mM KCl, pH 7.0).

GltA, PncB = test: Lactylation reaction of recombinant proteins by YiaC, immunoblotting; type: biochemical, E. coli; details: 15 μM YiaC, 20 μM substrate, lactyl-CoA 1 mM, 25 °C, 10 h
Acs = test: In vitro assay for Acs activity; type: biochemical, E. coli; details: result in words
Procedure: (§2) This method was performed as described previously. In detail, the purified Acs or PrpE with a final concentration of 0.3 μM were added in the reaction buffer [50 mM HEPES, 10 mM MgCl2, 2.5 mM ATP, 0.5 mM HSCoA, 3 mM phosphoenolpyruvate, 0.1 mM NADH, 1 U pyruvate kinase, 1.5 U lactate dehydrogenase, 5 U myokinase, 10 mM DTT, and 0.2 mM organic acid substrate (acetate, lactate and propionate), PH 7.5] at 25 °C for 30 min. […] Each reaction was performed three biological repetitions.
(§3) Samples dissolved in water were analyzed by an Orbitrap Exploris 480 (Thermo Scientific) mass spectrometer in positive ESI mode using the settings described previously[65],[66]. […] An Orbitrap Exploris 480 (Thermo Fisher Scientific) was employed for MS analysis. Spray voltage was set to 3.5 kV, funnel RF level at 40, and ion transfer tube temperature at 320 °C. Data were collected by Xcalibur (v.4.0.27.19). The orbitrap mass analyzer was used as the MS1 detector with 120,000 resolution. The normalized AGC target and maximum injection time were set at 70% /standard for MS1. The MS2 detector was used 15,000 resolution. Targeted mass setting is lactyl-CoA: 840.1436, acetyl-CoA: 810.1330 and propionate CoA: 824.1487. […] The relative intensity of acyl-CoA was analyzed by Xcalibur (v.4.0.27.19).

PrpE = test: In vitro assay for PrpE activity; type: biochemical, E. coli; details: result in words
Procedure: as §2, §3

CobB [3] = target: T1, CobB (Escherichia coli, UniProt P75960); details: for kcat: 37 °C, MALDI-TOF MS, mean ± SEM; for kcat / kcat/Km: n = 3
T1 sequence (P75960 1-279): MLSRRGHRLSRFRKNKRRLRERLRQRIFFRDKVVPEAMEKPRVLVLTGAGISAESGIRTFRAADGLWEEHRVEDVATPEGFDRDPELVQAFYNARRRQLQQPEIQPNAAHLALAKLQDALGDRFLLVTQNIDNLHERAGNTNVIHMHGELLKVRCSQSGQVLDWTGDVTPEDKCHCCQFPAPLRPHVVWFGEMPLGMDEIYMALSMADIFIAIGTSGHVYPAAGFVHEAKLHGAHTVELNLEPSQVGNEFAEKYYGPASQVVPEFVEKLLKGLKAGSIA
Procedure: as §1

PykF, GpmA, Mdh = details: 15 μM CobB, 20 μM substrate, 25 °C, 10 h
Procedure: The purified recombinant YiaC (15 μM) and candidate substrate proteins (GltA, PncB, 20 μM) were incubated in YiaC reaction buffer at 25 °C for 10 h. […] The reaction products were analyzed by Western blotting with anti-lactylation.

CobB [4] = target: T1, CobB; details: 50 μM peptide, 1 μM CobB, pH 8.5, 37 °C, 2 h; with 1 mM NAD^+ unless stated
PykF = details: in vitro; result in words
[5] = overexpression in E. coli BL21 (λDE3) vs pET28a
[6] = Deacetylation, Michaelis-Menten best fit, Supplementary Data 2
[7] = deacetylation, AETAEK(ac)YGDEQVK
[8] = delactylation, AETAEK(la)YGDEQVK

B1: YiaC: GNAT family protein; lysine lactylase (protein, UniProt P37664 1-146, looked up)
Peptidyl-lysine …: MIREAQRSELPAILELWLESTTWGHPFIKANYWRDCIPLVRDAYLANAQNWVWEEDGKLLGFVSIMEGRFLAAMFVAPKAVRRGIGKALMQYVQQRHPHLMLEVYQKNQPAINFYQAQGFHIVDCAWQDETQLPTWIMSWPVVQTL
- lactylation of peptide by YiaC (YiaC [1]; 0.1 mM lactyl-CoA, pH 7, 37 °C): can catalyze lactylation in vitro
- lactylation compared with acetylation by YiaC (YiaC [1]; 37 °C): likely more efficient for lactylation
- Vmax (YiaC [2]; Acetylation, Michaelis-Menten best fit, Supplementary Data 2): 0.005773
- Km (YiaC [2]; Acetylation, Michaelis-Menten best fit, Supplementary Data 2, read-out: Km): 28.7 µM
- Vmax (YiaC [2]; Lactylation, Michaelis-Menten best fit, Supplementary Data 2): 0.01667
- Km (YiaC [2]; Lactylation, Michaelis-Menten best fit, Supplementary Data 2, read-out: Km): 26.6 µM
- kcat/Km (YiaC [2]; acetylation, n = 3): 8000 M⁻¹ s⁻¹
- Km (YiaC [2]; acetylation, peptide from PncB 5-285 μM, mean ± SEM, n = 3, read-out: Km for peptide): 28.7 ± 1.2 µM
- kcat (YiaC [2]; acetylation, mean ± SEM, n = 3): 0.23 ± 0.04 s⁻¹
- kcat/Km (YiaC [2]; lactylation, n = 3): 36000 M⁻¹ s⁻¹
- Km (YiaC [2]; lactylation, peptide from PncB 5-285 μM, mean ± SEM, n = 3, read-out: Km for peptide): 26.6 ± 1.1 µM
- kcat (YiaC [2]; lactylation, mean ± SEM, n = 3): 0.97 ± 0.03 s⁻¹
- Kla level (whole-cell lysates): extensive and obvious increase in Kla levels
- Kac level (whole-cell lysates; [5]): could upregulate Kac
- succinylation level (whole-cell lysates; [5]): did not cause a change in succinylation
- lactylation of candidate proteins (GltA, PncB): can effectively lactylate citrate synthase (GltA) and nicotinate phosphoribosyltransferase (PncB)

B2: Acs: acetyl-CoA synthetase (protein, UniProt P27550 1-652, looked up)
Acetyl-coenzyme A synthetase: MSQIHKHTIPANIADRCLINPQQYEAMYQQSINVPDTFWGEQGKILDWIKPYQKVKNTSFAPGNVSIKWYEDGTLNLAANCLDRHLQENGDRTAIIWEGDDASQSKHISYKELHRDVCRFANTLLELGIKKGDVVAIYMPMVPEAAVAMLACARIGAVHSVIFGGFSPEAVAGRIIDSNSRLVITSDEGVRAGRSIPLKKNVDDALKNPNVTSVEHVVVLKRTGGKIDWQEGRDLWWHDLVEQASDQHQAEEMNAEDPLFILYTSGSTGKPKGVLHTTGGYLVYAALTFKYVFDYHPGDIYWCTADVGWVTGHSYLLYGPLACGATTLMFEGVPNWPTPARMAQVVDKHQVNILYTAPTAIRALMAEGDKAIEGTDRSSLRILGSVGEPINPEAWEWYWKKIGNEKCPVVDTWWQTETGGFMITPLPGATELKAGSATRPFFGVQPALVDNEGNPLEGATEGSLVITDSWPGQARTLFGDHERFEQTYFSTFKNMYFSGDGARRDEDGYYWITGRVDDVLNVSGHRLGTAEIESALVAHPKIAEAAVVGIPHNIKGQAIYAYVTLNHGEEPSPELYAEVRNWVRKEIGPLATPDVLHWTDSLPKTRSGKIMRRILRKIAAGDTSNLGDTSTLADPGVVEKLLEEKQAIAMPS
- formation of lactyl-CoA from lactate (Acs): neither Acs nor PrpE could catalyze the formation of lactyl-CoA from lactate

B3: PrpE: propionate CoA synthetase (protein, UniProt P77495 1-628, looked up)
Propionate--CoA ligase: MSFSEFYQRSINEPEQFWAEQARRIDWQTPFTQTLDHSNPPFARWFCEGRTNLCHNAIDRWLEKQPEALALIAVSSETEEERTFTFRQLHDEVNAVASMLRSLGVQRGDRVLVYMPMIAEAHITLLACARIGAIHSVVFGGFASHSVAARIDDAKPVLIVSADAGARGGKIIPYKKLLDDAISQAQHQPRHVLLVDRGLAKMARVSGRDVDFASLRHQHIGARVPVAWLESNETSCILYTSGTTGKPKGVQRDVGGYAVALATSMDTIFGGKAGSVFFCASDIGWVVGHSYIVYAPLLAGMATIVYEGLPTWPDCGVWWTIVEKYQVSRMFSAPTAIRVLKKFPTAEIRKHDLSSLEVLYLAGEPLDEPTASWVSNTLDVPVIDNYWQTESGWPIMAIARGLDDRPTRLGSPGVPMYGYNVQLLNEVTGEPCGVNEKGMLVVEGPLPPGCIQTIWGDDGRFVKTYWSLFSRPVYATFDWGIRDADGYHFILGRTDDVINVAGHRLGTREIEESISSHPGVAEVAVVGVKDALKGQVAVAFVIPKESDSLEDRDVAHSQEKAIMALVDSQIGNFGRPAHVWFVSQLPKTRSGKMLRRTIQAICEGRDPGDLTTIDDPASLDQIRQAMEE
- formation of lactyl-CoA from lactate (PrpE): neither Acs nor PrpE could catalyze the formation of lactyl-CoA from lactate

B4: CobB: NAD-dependent deacylase; lysine delactylase (protein)
chain: MLSRRGHRLSRFRKNKRRLRERLRQRIFFRDKVVPEAMEKPRVLVLTGAGISAESGIRTFRAADGLWEEHRVEDVATPEGFDRDPELVQAFYNARRRQLQQPEIQPNAAHLALAKLQDALGDRFLLVTQNIDNLHERAGNTNVIHMHGELLKVRCSQSGQVLDWTGDVTPEDKCHCCQFPAPLRPHVVWFGEMPLGMDEIYMALSMADIFIAIGTSGHVYPAAGFVHEAKLHGAHTVELNLEPSQVGNEFAEKYYGPASQVVPEFVEKLLKGLKAGSIA
modifications: left off: His tag (from the vector pET28a and the Ni-NTA purification), end not stated, state not stated
notes: NAD-dependent deacylase; lysine delactylase
- Km (CobB [3]; [6]): 25.4 µM
- Vmax (CobB [3]; [6]): 0.01822
- Vmax (CobB [3]; Delactylation, Michaelis-Menten best fit, Supplementary Data 2): 0.02447
- kcat (CobB [3]; [7]): 0.97 ± 0.02 s⁻¹
- kcat/Km (CobB [3]; [7]): 52000 M⁻¹ s⁻¹
- kcat (CobB [3]; [8]): 0.99 ± 0.04 s⁻¹
- kcat/Km (CobB [3]; [8]): 39000 M⁻¹ s⁻¹
- Kla level (whole-cell lysates): significant decrease in Kla levels
- delactylation of candidate proteins (PykF, GpmA, Mdh): can clearly delactylate pyruvate kinase I (PykF), 2,3-bisphosphoglycerate-dependent phosphoglycerate mutase (GpmA) and malate dehydrogenase (Mdh) in vitro
- delactylation of peptide by CobB (CobB [4]): efficiently catalyzed the hydrolysis of the lactyl peptide in the presence of NAD^+; also recorded: the delactylated peptide was not detected in the reaction without NAD^+
- PykF activity after CobB erasing K382la (PykF): enhanced PykF activity in vitro
